Assay results: patent US20210052649A1 (FRED HUTCHINSON CANCER RESEARCH CENTER, published 2021)

Biological target: T1, ROR1-protein (human, UniProt Q01973 30-403, limits assumed)
T1 construct: also called orphan tyrosine kinase receptor ROR1
Experiment: assay not described; monovalent binding affinity for ROR1 compared with mAb 2A2

T1 sequence (Q01973 30-403 limits assumed): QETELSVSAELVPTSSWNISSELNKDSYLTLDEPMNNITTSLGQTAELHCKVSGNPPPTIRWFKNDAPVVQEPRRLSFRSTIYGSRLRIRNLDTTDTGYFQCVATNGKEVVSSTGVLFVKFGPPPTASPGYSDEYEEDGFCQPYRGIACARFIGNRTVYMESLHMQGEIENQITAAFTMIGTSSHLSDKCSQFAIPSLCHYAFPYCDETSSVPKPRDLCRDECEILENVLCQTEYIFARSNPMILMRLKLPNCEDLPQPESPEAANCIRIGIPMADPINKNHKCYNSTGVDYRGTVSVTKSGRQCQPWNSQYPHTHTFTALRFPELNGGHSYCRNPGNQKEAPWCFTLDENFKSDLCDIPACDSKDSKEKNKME

B1: anti-ROR1 monoclonal antibody R12 (antibody, V domains shown)
VH: QEQLVESGGRLVTPGGSLTLSCKASGFDFSAYYMSWVRQAPGKGLEWIATIYPSSGKTYYATWVNGRFTISSDNAQNTVDLQMNSLTAADRATYFCARDSYADDGALFNIWGPGTLVTISS
VL: ELVLTQSPSVSAALGSPAKITCTLSSAHKTDTIDWYQQLQGEAPRYLMQVQSDGSYTKRPGVPDRFSGSSSGADRYLIIPSVQADDEADYYCGADYIGGYVFGGGTQLTVTG
notes: also called mAb R12; R12 mAb
fold higher monovalent binding affinity than 2A2: > 50 fold
